Measurements from patent publication US20130326725.

Legend:
Assay in all cases: cell_activity
[1] = system: ZFN 107830L (28491) (synthetic construct); conditions: as pair 107830L/R (pKG7479); tomato protoplasts, 48 h; also active in yeast assay
[2] = system: ZFN 107832R (28536) (synthetic construct); conditions: as pair 107832L/R (pKG7480); tomato protoplasts, 48 h; also active in yeast assay
[3] = system: ZFN 107833R (28550) (synthetic construct); conditions: as pair 107833L/R (pKG7481); tomato protoplasts, 48 h; also active in yeast assay
[4] = system: ZFN 107835L (28563) (synthetic construct); conditions: as pair 107835L/R (pKG7482); tomato protoplasts, 48 h; also active in yeast assay
[5] = system: ZFN 107835R (28564) (synthetic construct); conditions: as pair 107835L/R (pKG7482); tomato protoplasts, 48 h; also active in yeast assay
[6] = system: ZFN 107832L (28535) (synthetic construct); conditions: as pair 107832L/R (pKG7480); tomato protoplasts, 48 h; also active in yeast assay
[7] = system: ZFN 107833L (28549) (synthetic construct); conditions: as pair 107833L/R (pKG7481); tomato protoplasts, 48 h; also active in yeast assay
[8] = system: ZFN 107830R (28492) (synthetic construct); conditions: as pair 107830L/R (pKG7479); tomato protoplasts, 48 h; also active in yeast assay

## CGGATCCCGATGCGAATCCACGGCGAGATACATAGGATGCT (double strand) [107830L target]
[1]
  activity (% indel clones): 4.1

## CTCTTTGGAGTTACCATGCTTGATGTGGTTAGGGCCAAG (double strand) [107832R target]
[2]
  activity (% indel clones): 5.5

## TTCAGAGGTCAATCTCCCAGTAGTTGGTGGTCATGCTGGCATAAC (double strand) [107833R target]
[3]
  activity (% indel clones): 2

## GGCTTATTACCTTGGATGCGAAGAAGGGAAGCTCGGTGAC (double strand) [107835L target]
[4]
  activity (% indel clones): 0.7

## GTCACCGAGCTTCCCTTCTTCGCATCCAAGGTAATAAGCC (double strand) [107835R target]
[5]
  activity (% indel clones): 0.7

## CTTGGCCCTAACCACATCAAGCATGGTAACTCCAAAGAG (double strand) [107832L target]
[6]
  activity (% indel clones): 5.5

## GTTATGCCAGCATGACCACCAACTACTGGGAGATTGACCTCTGAA (double strand) [107833L target]
[7]
  activity (% indel clones): 2

## AGCATCCTATGTATCTCGCCGTGGATTCGCATCGGGATCCG (double strand) [107830R target]
[8]
  activity (% indel clones): 4.1
